“And” between values parts separate entries of the source, which are not always exact repeats. Equal entries are not always repeated. Ends that are not written are not given here.
B1: unlabeled peptide of the CTH of LYP (residues 787-807) (peptide)
peptide: GFANRFSKPKGPRNPPPTWNI
notes: lymphoid phosphatase LYP (PTPN22), human, C-terminal homology segment, region 787-807; also called LYP-CTH; source: synthetic peptide (Genosphere Biotechnologies)
B2: F-BAR domain of PSTPIP1 (residues 1-289), G258A (domain or fragment)
chain: not shown
notes: PSTPIP1, human, UniProt O43586, residues 1-289 (F-BAR domain), patient mutation G258A; homodimer in the crystal; also called G258A mutant; PSTPIP1-G258A; not shown: poly-His, N-terminal, cleaved
B3: LYP-CTH peptide, unlabeled (residues 787-807) (peptide)
peptide: GFANRFSKPKGPRNPPPTWNI
notes: LYP (PTPN22), human, UniProt Q9Y2R2-1, region 787-807 (C-terminal homology segment, CTH); also called unlabeled LYP-CTH; peptide of the CTH of LYP; source: synthetic peptide (custom synthesized, Genosphere Biotechnologies, France)
B4: F-BAR domain of PSTPIP1 (residues 1-289), wild type (domain or fragment)
chain: not shown
notes: PSTPIP1, human, UniProt O43586, region 1-289 (F-BAR domain); modified pET15b with TEV site; homodimer in the crystals; also called wild type F-BAR; F-BAR of PSTPIP1; not shown: poly-His, N-terminal, cleaved
B5: fluorescein-LYP-CTH (peptide)
peptide: fluorescein-GFANRFSKPKGPRNPPPTWNI
notes: LYP (PTPN22), human, UniProt Q9Y2R2-1, region 787-807 (C-terminal homology segment, CTH); also called fluorescein-labeled LYP-CTH; synthetic peptide of the CTH of LYP (residues 787-807) labeled with fluorescein; source: synthetic peptide (custom synthesized, Thermo Scientific, Germany)
B6: F-BAR domain of PSTPIP1 (residues 1-289), W232A (domain or fragment)
chain: not shown
notes: PSTPIP1, human, UniProt O43586, region 1-289 (F-BAR domain), W232A; not shown: poly-His, N-terminal, cleaved
B7: F-BAR domain of PSTPIP1 (residues 1-289), E250Q (domain or fragment)
chain: not shown
notes: PSTPIP1, human, UniProt O43586, region 1-289 (F-BAR domain), patient mutation E250Q; not shown: poly-His, N-terminal, cleaved

Tests used:
[1] = target: T1, F-BAR domain of PSTPIP1 (residues 1-289), wild type (human, UniProt O43586 1-289); test: ITC; unlabeled LYP-CTH peptide in the syringe, F-BAR of PSTPIP1 in the cell; 25 °C; 20 mM sodium phosphate (pH 7.5), 150 mM NaCl, 5% (v/v) DMSO; single set of identical sites model; three single experiments; conditions: both partners purified
T1 construct: His tag cleaved with TEV protease; forms the F-BAR dimer in the crystal; also called PSTPIP1 F-BAR (1-289); F-BAR of PSTPIP1; not shown: poly-His, N-terminal, cleaved

[2] = target: the molecule itself; test: crystal structure; F-BAR domain of PSTPIP1 (1-289) alone, G258A and wild type; space group P212121, two molecules in the asymmetric unit
[3] = target: B4; test: ITC; 25 °C; F-BAR of PSTPIP1 in the cell (26.2-30.6 µM), unlabeled LYP-CTH peptide in the syringe (146.8-155.2 µM); 20 mM sodium phosphate pH 7.5, 150 mM NaCl, 5% DMSO; single set of identical sites model; conditions: both partners purified
fluorescein-LYP-CTH [4] = target: B5; test: fluorescence polarisation; fluorescence anisotropy under saturation conditions; fluorescein-LYP-CTH at 1 µM titrated with the F-BAR of PSTPIP1; stoichiometry from the intersection of asymptotes; conditions: both partners purified
[5] = target: B4; test: fluorescence polarisation; fluorescence anisotropy; fluorescein-LYP-CTH (2 nM) titrated with the F-BAR of PSTPIP1; 20 mM Tris/HCl pH 7.5, 150 mM NaCl, 0.1 mg/mL BSA; 25 °C; apparent kd, one-to-one binding model; conditions: both partners purified
[6] = target: T2, F-BAR domain of PSTPIP1 (residues 1-289), A230T (human, UniProt O43586 1-289, A230T); test: as above; conditions: both partners purified
T2 construct: PSTPIP1, human, UniProt O43586, region 1-289 (F-BAR domain), patient mutation A230T; also called A230T mutant; not shown: poly-His, N-terminal, cleaved
T2 sequence (O43586 1-289 A230T): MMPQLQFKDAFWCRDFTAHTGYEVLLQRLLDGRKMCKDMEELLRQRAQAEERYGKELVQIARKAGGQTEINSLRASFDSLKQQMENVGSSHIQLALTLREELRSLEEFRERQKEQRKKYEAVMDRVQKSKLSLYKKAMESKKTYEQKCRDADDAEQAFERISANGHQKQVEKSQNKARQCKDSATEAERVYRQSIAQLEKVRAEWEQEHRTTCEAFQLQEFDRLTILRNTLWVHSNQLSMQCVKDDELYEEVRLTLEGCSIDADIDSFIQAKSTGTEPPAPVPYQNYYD

fluorescein-LYP-CTH [7] = target: B5; test: as above; conditions: both partners purified

## B1
[1]
  Kd: 263 nM and 229 nM and 267 nM
  stoichiometry N: 0.5 and 0.49 and 0.46

## B2
[2]
  stoichiometry N: 2

## B3
[3]
  Kd: 253 nM
  stoichiometry N: 0.48 molecules of LYP-CTH for each PSTPIP1

## B4
[2]
  binding result: binds
fluorescein-LYP-CTH [4]
  stoichiometry N: 2 molecules of PSTPIP1 for each LYP-CTH

## B5
[5]
  Kd: ~20 nM
[6]
  Kd: ~20 nM

## B6
fluorescein-LYP-CTH [7]
  fold lower binding affinity than the wild type F-BAR: ~60 fold

## B7
fluorescein-LYP-CTH [7]
  fold lower binding affinity than the wild type F-BAR: ~60 fold
